Substitutions are numbered along the chain they refer to.
B1: 1D2 SDR mutant HK54Q (antibody, IgG1, V domains shown)
VH: QVQLVQSGAEVKKPGASVKVSCEASGYTFTDKYLHWVRQAPGQGLEWMAWINPQSGGTFYAQNFKGRVTVTRDTSINTAYLELTSLRLDDTSTYYCARGRDYYDQGAADLWGQGTMVTVSS
VL: DIQLTQSPSSLSASVGDRVTITCRASQGINSVLAWYQQKPGKAPKLLLYAASKLESGVPSRFSGSGSGTDYTLTISSLQPEDFGTYYCQQYYSPVRTFGQGTKVEIKR
notes: also called X3 Q
B2: 1D2 SDR mutant HY102A (antibody, IgG1, V domains shown)
VH: B1 VH with Q54K, Y102A
VL: B1 VL
notes: also called X5 A
B3: 1D2 SDR mutant HR100T (antibody, IgG1, V domains shown)
VH: B1 VH with Q54K, R100T
VL: B1 VL
notes: also called X4 T
B4: 1D2 SDR mutant HY102N (antibody, IgG1, V domains shown)
VH: B1 VH with Q54K, Y102N
VL: B1 VL
notes: also called X5 N
B5: 1D2 SDR mutant HQ105M (antibody, IgG1, V domains shown)
VH: B1 VH with Q54K, Q105M
VL: B1 VL
notes: also called X7 M
B6: 1D2 SDR mutant HY102S (antibody, IgG1, V domains shown)
VH: B1 VH with Q54K, Y102S
VL: B1 VL
notes: also called X5 S
B7: 1D2 SDR mutant HQ105G (antibody, IgG1, V domains shown)
VH: B1 VH with Q54K, Q105G
VL: B1 VL
notes: also called X7 G
B8: 1D2 SDR mutant HQ105E (antibody, IgG1, V domains shown)
VH: B1 VH with Q54K, Q105E
VL: B1 VL
notes: also called X7 E
B9: 1D2 SDR mutant HY102L (antibody, IgG1, V domains shown)
VH: B1 VH with Q54K, Y102L
VL: B1 VL
notes: also called X5 L
B10: 1D2 SDR mutant HR100G (antibody, IgG1, V domains shown)
VH: B1 VH with Q54K, R100G
VL: B1 VL
notes: also called X4 G
B11: 1D2 SDR mutant HR100L (antibody, IgG1, V domains shown)
VH: B1 VH with Q54K, R100L
VL: B1 VL
notes: also called X4 L
B12: 1D2 SDR mutant HQ105W (antibody, IgG1, V domains shown)
VH: B1 VH with Q54K, Q105W
VL: B1 VL
notes: also called X7 W
B13: 1D2 SDR mutant HY103A (antibody, IgG1, V domains shown)
VH: B1 VH with Q54K, Y103A
VL: B1 VL
notes: also called X6 A
B14: 1D2 SDR mutant HK54R (antibody, IgG1, V domains shown)
VH: B1 VH with Q54R
VL: B1 VL
notes: also called X3 R
B15: 1D2 SDR mutant HK54W (antibody, IgG1, V domains shown)
VH: B1 VH with Q54W
VL: B1 VL
notes: also called X3 W
B16: 1D2 SDR mutant HR100S (antibody, IgG1, V domains shown)
VH: B1 VH with Q54K, R100S
VL: B1 VL
notes: also called X4 S
B17: 1D2 SDR mutant HK54V (antibody, IgG1, V domains shown)
VH: B1 VH with Q54V
VL: B1 VL
notes: also called X3 V
B18: 1D2 SDR mutant HQ105V (antibody, IgG1, V domains shown)
VH: B1 VH with Q54K, Q105V
VL: B1 VL
notes: also called X7 V
B19: 1D2 SDR mutant HR100C (antibody, IgG1, V domains shown)
VH: B1 VH with Q54K, R100C
VL: B1 VL
notes: also called X4 C
B20: 1D2 SDR mutant HR100I (antibody, IgG1, V domains shown)
VH: B1 VH with Q54K, R100I
VL: B1 VL
notes: also called X4 I
B21: 1D2 SDR mutant HK54T (antibody, IgG1, V domains shown)
VH: B1 VH with Q54T
VL: B1 VL
notes: also called X3 T
B22: 1D2 SDR mutant HR100Q (antibody, IgG1, V domains shown)
VH: B1 VH with Q54K, R100Q
VL: B1 VL
notes: also called X4 Q
B23: 1D2 SDR mutant HY102I (antibody, IgG1, V domains shown)
VH: B1 VH with Q54K, Y102I
VL: B1 VL
notes: also called X5 I
B24: 1D2 SDR mutant HY102V (antibody, IgG1, V domains shown)
VH: B1 VH with Q54K, Y102V
VL: B1 VL
notes: also called X5 V
B25: 1D2 SDR mutant HR100M (antibody, IgG1, V domains shown)
VH: B1 VH with Q54K, R100M
VL: B1 VL
notes: also called X4 M
B26: 1D2 SDR mutant HR100E (antibody, IgG1, V domains shown)
VH: B1 VH with Q54K, R100E
VL: B1 VL
notes: also called X4 E
B27: 1D2 SDR mutant HQ105T (antibody, IgG1, V domains shown)
VH: B1 VH with Q54K, Q105T
VL: B1 VL
notes: also called X7 T
B28: 1D2 SDR mutant HQ105L (antibody, IgG1, V domains shown)
VH: B1 VH with Q54K, Q105L
VL: B1 VL
notes: also called X7 L
B29: 1D2 SDR mutant HY102G (antibody, IgG1, V domains shown)
VH: B1 VH with Q54K, Y102G
VL: B1 VL
notes: also called X5 G
B30: 1D2 SDR mutant HR100V (antibody, IgG1, V domains shown)
VH: B1 VH with Q54K, R100V
VL: B1 VL
notes: also called X4 V
B31: 1D2 SDR mutant HR100P (antibody, IgG1, V domains shown)
VH: B1 VH with Q54K, R100P
VL: B1 VL
notes: also called X4 P
B32: 1D2 SDR mutant HQ105S (antibody, IgG1, V domains shown)
VH: B1 VH with Q54K, Q105S
VL: B1 VL
notes: also called X7 S
B33: 1D2 SDR mutant HR100A (antibody, IgG1, V domains shown)
VH: B1 VH with Q54K, R100A
VL: B1 VL
notes: also called X4 A
B34: 1D2 SDR mutant HY102W (antibody, IgG1, V domains shown)
VH: B1 VH with Q54K, Y102W
VL: B1 VL
notes: also called X5 W
B35: 1D2 SDR mutant HY102T (antibody, IgG1, V domains shown)
VH: B1 VH with Q54K, Y102T
VL: B1 VL
notes: also called X5 T
B36: 1D2 SDR mutant HY102F (antibody, IgG1, V domains shown)
VH: B1 VH with Q54K, Y102F
VL: B1 VL
notes: also called X5 F
B37: 1D2 SDR mutant HK54S (antibody, IgG1, V domains shown)
VH: B1 VH with Q54S
VL: B1 VL
notes: also called X3 S

target: T1, recombinant human GM-CSF (human, UniProt P04141 18-144); experiment: ELISA on coated rhGM-CSF, UBA relative to 1D2
T1 construct: also called rhGM-CSF; CSF2
Source text: Some of the residues in the CDRs are essential for epitope binding affinity and/or specificity. A number of computational methods were developed to detect these functional residues, generally known as ‘specificity-determining resides’ (SDRs). […] Based on the analysis, 7 amino acid residues in VH and 3 amino acid residues in VL were selected as the SDRs. The residues are labeled X₁ to X₁₀ for the ease of reference. The SDRs on VH are: Heavy chain D31 (HD31) (X₁), HK32 (X₂), HK54(X₃), HR100 (X₄), HY102 (X₅), HY103 (X₆) and HQ105 (X₇). The SDRs on VL are Light chain V32 (LV32) (X₈), LP94 (X₉) and LV95 (X₁₀). The SDRs were subsequently mutated by site-directed mutagenesis to other amino acids to generate mutant VH or VL clones. HEK293 cells were co-transfected with a vector encoding a mutant VH paired with a vector encoding a wild type VL or a vector encoding a wild type VH paired with a vector encoding a mutant VL. The antibody clones were harvested from the culture medium. The binding affinity of each antibody clone to human GM-CSF was tested by ELISA. The ELISA was done according to the following procedures. ELISA plate was coated with 50 μl of rhGM-CSF at 1 μg/mL. The plate was washed with 200 μl PBST for three times, followed by blocking with 1% BSA for 1 hour at room temperature. The antibody clones to be tested were diluted at 1:12000. 100 μl of the diluted antibodies were added to the cell at 100 μl/well. The plate was incubated at room temperature for 1 hour. The plate was then washed and incubated with 1:5000 diluted goat-anti-human secondary antibody conjugated with HRP at room temperature for one hour. The ELISA assay was developed with 100 μl developing buffer containing H₂O₂-Amplx Red per well in the dark for 5 min and the fluorescence intensity was read at Ex.530/Em.590 nm, with cutoff at 570 nm. The Unit Binding Activity (UBA) of each sample was calculated as the fluorescence signal/antibody clone dilution factor.

T1 sequence (P04141 18-144 limits assumed): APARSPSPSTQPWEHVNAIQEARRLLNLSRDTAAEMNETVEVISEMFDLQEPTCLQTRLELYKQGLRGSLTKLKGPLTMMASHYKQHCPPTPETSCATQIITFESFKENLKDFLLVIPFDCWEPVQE

Row | Binder | binding affinity % of 1D2
1 | B1 | 93%
2 | B2 | 68%
3 | B3 | 93%
4 | B4 | 83%
5 | B5 | 148%
6 | B6 | 104%
7 | B7 | 105%
8 | B8 | 173%
9 | B9 | 86%
10 | B10 | 125%
11 | B11 | 69%
12 | B12 | 68%
13 | B13 | 88%
14 | B14 | 98%
15 | B15 | 88%
16 | B16 | 72%
17 | B17 | 74%
18 | B18 | 155%
19 | B19 | 89%

Row | Binder | binding affinity % of 1D2
20 | B20 | 80%
21 | B21 | 101%
22 | B22 | 57%
23 | B23 | 64%
24 | B24 | 71%
25 | B25 | 94%
26 | B26 | 92%
27 | B27 | 133%
28 | B28 | 63%
29 | B29 | 89%
30 | B30 | 74%
31 | B31 | 101%
32 | B32 | 134%
33 | B33 | 76%
34 | B34 | 82%
35 | B35 | 56%
36 | B36 | 71%
37 | B37 | 82%

Source: patent US20210309732A1 (ELIXIRON IMMUNOTHERAPEUTICS HONG KONG, published 2021)
